Where two headings read alike, the source gives them in different places.

Assay [1] deals with human BCMA his tag protein (Acrobiosystems, BCA-H522y) (human) (UniProt Q02223). The assay can be described thus: comp. ELISA, competitor biotin-BAFF (ligand signal), Ab 78 ug/mL. In general terms: In an ELISA, binding on a coated surface is turned into a signal by an enzyme label.
The target is the same in assay [2]. The assay is described as follows: comp. ELISA, competitor biotin-APRIL (ligand signal), Ab 78 ug/mL.
For assay [3] the target is unchanged. The assay can be described thus: comp. ELISA, competitor biotin-BAFF (ligand signal), Ab 19.5 ug/mL.
The target is the same in assay [4]. The assay can be described thus: comp. ELISA, competitor biotin-APRIL (ligand signal), Ab 19.5 ug/mL.
For assay [5] the target is unchanged. The assay can be described thus: comp. ELISA, competitor biotin-BAFF (ligand signal), Ab 1.218 ug/mL.
For assay [6] the target is unchanged. The assay can be described thus: comp. ELISA, competitor biotin-BAFF (ligand signal), Ab 4.875 ug/mL.
For assay [7] the target is unchanged. The assay can be described thus: comp. ELISA, competitor biotin-APRIL (ligand signal), Ab 1.218 ug/mL.
Assay [8] has the same target. The assay is described as follows: comp. ELISA, competitor biotin-APRIL (ligand signal), Ab 4.875 ug/mL.
The target in assay [9] is T1, human BCMA his tag protein (Acrobiosystems, BCA-H522y) (human, UniProt Q02223 1-54).
T1 construct: Bought protein; also called BCMA/TNFR-His; human recombinant BCMA his tag; not shown: his tag
T1 sequence (looked up): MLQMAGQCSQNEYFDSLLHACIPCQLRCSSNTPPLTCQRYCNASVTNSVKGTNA
The assay can be described thus: comp. ELISA, competitor biotin-BAFF (ligand signal), Ab 78 ug/mL. How it is done:
(§1) Plates (Corning) were coated with 2 μg/mL human BCMA his tag protein (Acrobiosystems, BCA-H522y) overnight at 4° C. After blocking and washing, 50 μL diluted antibodies (78 μg/mL, 19.5 μg/mL, 4.875 μg/mL, 1.218 μg/mL) and 50 μL biotin-labeled 1 μg/mL APRIL (Acrobiosystems, APL-H82F5) or 1.25 μg/mL BAFF (Acrobiosystems, BAF-H82F3) ligand were added to each well, and incubated at 37° C. for 1 hour. After washing 3 times, 100 μL HRP-labeled streptavidin (Biolegend, 405210) diluted 1:2000 was added to each well, and incubated at 37° C. for 30 minutes. After washing, 100 μL TMB substrate (Abeam, ab171524) was added to each well and developed for 5 minutes and the reaction was stopped by 3M HCl. The absorbance value at […] was read using a microplate reader (Tecan, SPARK).

For assay [10], the target named is T1, human BCMA his tag protein …. The assay is described as follows: comp. ELISA, competitor biotin-APRIL (ligand signal), Ab 78 ug/mL. How it is done:
as §1

Assay [11] has the same target. The assay is described as follows: comp. ELISA, competitor biotin-BAFF (ligand signal), Ab 19.5 ug/mL. As to the method:
as §1

Assay [12] has as its target T2, human BCMA full-length protein on cells (human, UniProt Q02223 1-184).
T2 construct: whole, on cells; also called CHO-K1/BCMA; BCMA on RPMI8226, Jeko-1, Daudi cells
T2 sequence (looked up): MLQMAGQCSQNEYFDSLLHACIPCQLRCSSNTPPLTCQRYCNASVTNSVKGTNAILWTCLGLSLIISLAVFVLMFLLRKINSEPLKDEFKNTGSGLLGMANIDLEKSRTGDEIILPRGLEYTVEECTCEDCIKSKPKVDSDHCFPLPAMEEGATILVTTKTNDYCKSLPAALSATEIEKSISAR
The assay is described as follows: flow cytometry on RPMI8226 cells, anti-human IgG PE [A&B) A]. How it is done:
The EC50 of the antibody was calculated by fitting the curve.
Background: Flow cytometry measures light scatter and fluorescence of single cells or particles in a stream.

Assay [13] addresses T1, human BCMA his tag protein …. The assay is described as follows: comp. ELISA, competitor biotin-APRIL (ligand signal), Ab 19.5 ug/mL. As to the method: as §1
For assay [14] the target is unchanged. The assay is described as follows: comp. ELISA, competitor biotin-BAFF (ligand signal), Ab 1.218 ug/mL. How it is done:
as §1

Assay [15] shares this target. The assay can be described thus: comp. ELISA, competitor biotin-BAFF (ligand signal), Ab 4.875 ug/mL. As to the method: as §1
Assay [16] has the same target. The assay can be described thus: comp. ELISA, competitor biotin-APRIL (ligand signal), Ab 1.218 ug/mL. How it is done:
as §1

Assay [17] has the same target. The assay can be described thus: comp. ELISA, competitor biotin-APRIL (ligand signal), Ab 4.875 ug/mL. As to the method: as §1
For assay [18], the target named is T2, human BCMA full-length protein on cells. The assay is described as follows: flow cytometry competition on CHO-K1/BCMA cells; antibody titrated against biotin-APRIL, PE streptavidin readout. How it is done: (§2) In a 96-well non-adsorption deep-well plate, the purified antibody and the control antibody were diluted to 1000 nM with DPBS, and then serially diluted to 8 concentration with 3-fold dilution. Biotin-APRIL was diluted to 4 μg/mL with DPBS. 50 μL the antibody diluted in the previous step or DPBS (Blank, Blank-PE tube), respectively, was added to the wells of a non-adsorption 96-well plate having 5×10⁵ CHO-K1/BCMA cells that overexpressed human BCMA, and then the 50 μL diluted APRIL in the previous step was added and mixed, incubated at 4° C. for 40 min. After washing once with pre-cooled DPBS, 150 μL PE Streptavidin (Biolegend, 405210) diluted with DPBS at 1:500 was added to each well, the cells were resuspended, and incubated at 4° C. for 30 min. After 30 minutes, centrifuged at 220 g for 5 minutes at 4° C., the supernatant was discarded, 200 μL pre-cooled DPBS washing solution was added to each well, the cells were resuspended by gently pipetting with a multichannel pipette, centrifuged at 220 g for 5 minutes, the supernatant was discarded, and the washing step was repeated one time. After 2 times of washing, the cells were resuspended in DPBS and detected by a flow analyzer (Beckman, Cytoflex). […]

The target is the same in assay [19]. The description is as above. As to the method:
as §2
The source holds these as a separate data set.

On to Isotype-2 (antibody), for which the OD450 in assay [1] came out at 3.24 OD450; in [2] it was 3.04 OD450; in assay [3] it was 3.28 OD450; in assay [4] it was 2.99 OD450; in assay [5], 3.38 OD450; in [6], 3.29 OD450. In addition, the OD450 in [7] worked out at 2.89 OD450; in assay [8], 3.07 OD450.

B1: BMK1 (scFv)
scFv: DIVLTQSPASLAVSLGKRATINCRASESVSVIGAHLIHWYQQKPGQPPKLLIYLASNLETGVPARFSGSGSGTDFTLTISSLQAEDAAIYYCLQSRIFPRTFGGGTKLEIKGSTSGSGKPGSGEGSTKGQVQLVQSGSELKKPGASVKVSCKASGYTFTDYSINWVRQAPGQGLEWMGWINTETREPAYAYDFRGRFVFSLDTSVSTAYLQISSLKAEDTAVYYCARDYSYAMDYWGQGTLVTVSS
notes: also called positive control antibody; BMK control antibody
For the molecule B1, the OD450 in assay [9] stood at 0.03 OD450; in [10] it was 0.05 OD450; in assay [11], 0.31 OD450; in assay [13], 0.31 OD450; in assay [14] it was 3.39 OD450; in assay [15] it was 3.32 OD450. For the same molecule, the OD450 in assay [16] was 3.1 OD450; in assay [17], 2.9 OD450. In [12], the midpoint of the response, the EC50, lay at 5.7 nM. Moreover, the figures for the concentration for half-maximal inhibition (IC50) in [18] and in assay [19] were 89.6 nM and 81.8 nM, respectively.

Broadly, the EC50 is the concentration giving half of the maximal effect. A low value points to higher potency in that assay. As usually defined, the IC50 is the concentration at which inhibition is half-maximal.

These data come from patent US20240174760A1 (ZHEJIANG NANOMAB TECHNOLOGY CENTER, published 2024).
